The target in series [1] is human CMG helicase (Cdc45-MCM2-7-GINS) (Homo sapiens, UniProt O75419;P49736;P25205-2;P33991;P33992;Q14566;P33993;Q14691;Q9Y248;Q9BRX5;Q9BRT9 …). The series can be described thus: cryo-EM structure (3.29 A); 100 uM ATPgS, 5 mM Mg acetate; ATPgS-Mg2+ at MCM6, MCM4, MCM7; ADP at MCM2, MCM3; MCM5 apo; Buffer S: 25 mM HEPES pH 7.5, 50 mM KCl, 5 mM Mg acetate, 2 mM DTT, with 100 uM ATPgS and 4 uM fork DNA, loaded on StrepTrap-bound CMG; eluted with 15 mM desthiobiotin; binding temperature not stated. As to conditions: protein: recombinant; tags: MCM4 N-terminal His8-TEV; Psf2 C-terminal TEV-2xStrepII; copies: 1;1;1;1;1;1;1;1;1;1;1; fork: 40 bp duplex 1:1-40 2:31-70; 30 nt unpaired tails, 3' poly-dT (strand 1) and 5' GC-rich (strand 2).

Series [2] deals with the molecule itself. Put plainly: cryo-EM structure; CMGA: AND-1 co-expressed with the CMG subunits in HEK293-F, co-purified; 1 mM ATPγS added, glutaraldehyde cross-linked before grid preparation; 6.77 Å map, CMG structure and AND-1 trimer crystal structure docked as rigid bodies.

B1: fork DNA (70T/70GC) (mixed)
DNA 1: CGTTTTACAACGTCGTGACTGGGCACTTGATCGGCCAACCTTTTTTTTTTTTTTTTTTTTTTTTTTTTTT
DNA 2: CAGGCAGGCAGGCAGGCAGGCAGGCAGGCAGGTTGGCCGATCAAGTGCCCAGTCACGACGTTGTAAAACG
For B1, in series [1], the binding result was “binds”.

B2: human AND-1, recombinant full length (natural protein, UniProt O75717 1-1129, looked up)
chain: MPATRKPMRYGHTEGHTEVCFDDSGSFIVTCGSDGDVRIWEDLDDDDPKFINVGEKAYSCALKSGKLVTAVSNNTIQVHTFPEGVPDGILTRFTTNANHVVFNGDGTKIAAGSSDFLVKIVDVMDSSQQKTFRGHDAPVLSLSFDPKDIFLASASCDGSVRVWQISDQTCAISWPLLQKCNDVINAKSICRLAWQPKSGKLLAIPVEKSVKLYRRESWSHQFDLSDNFISQTLNIVTWSPCGQYLAAGSINGLIIVWNVETKDCMERVKHEKGYAICGLAWHPTCGRISYTDAEGNLGLLENVCDPSGKTSSSKVSSRVEKDYNDLFDGDDMSNAGDFLNDNAVEIPSFSKGIINDDEDDEDLMMASGRPRQRSHILEDDENSVDISMLKTGSSLLKEEEEDGQEGSIHNLPLVTSQRPFYDGPMPTPRQKPFQSGSTPLHLTHRFMVWNSIGIIRCYNDEQDNAIDVEFHDTSIHHATHLSNTLNYTIADLSHEAILLACESTDELASKLHCLHFSSWDSSKEWIIDLPQNEDIEAICLGQGWAAAATSALLLRLFTIGGVQKEVFSLAGPVVSMAGHGEQLFIVYHRGTGFDGDQCLGVQLLELGKKKKQILHGDPLPLTRKSYLAWIGFSAEGTPCYVDSEGIVRMLNRGLGNTWTPICNTREHCKGKSDHYWVVGIHENPQQLRCIPCKGSRFPPTLPRPAVAILSFKLPYCQIATEKGQMEEQFWRSVIFHNHLDYLAKNGYEYEESTKNQATKEQQELLMKMLALSCKLEREFRCVELADLMTQNAVNLAIKYASRSRKLILAQKLSELAVEKAAELTATQVEEEEEEEDFRKKLNAGYSNTATEWSQPRFRNQVEEDAEDSGEADDEEKPEIHKPGQNSFSKSTNSSDVSAKSGAVTFSSQGRVNPFKVSASSKEPAMSMNSARSTNILDNMGKSSKKSTALSRTTNNEKSPIIKPLIPKPKPKQASAASYFQKRNSQTNKTEEVKEENLKNVLSETPAICPPQNTENQRPKTGFQMWLEENRSNILSDNPDFSDEADIIKEGMIRFRVLSTEERKVWANKAKGETASEGTEAKKRKRVVDESDETENQEEKAKENLNLSKKQKPLDFSTNQKLSAFAFKQE
notes: AND-1, human, full-length ORF from IMAGE cDNA clone 6514641; The tag is 2xStrepII-TEV; no TEV cleavage step is described; Only the SepB domain is visible in the map; also called AND-1 trimer; source: HEK293-F, transient co-transfection with the CMG subunits, co-purified as CMGA
As for B2, in series [2], the stoichiometry N – broadly, a count of units in the complex or per binding partner – came out at 3.

Source of the values: PMC7337937, “CryoEM structures of human CMG–ATPγS–DNA and CMG–AND-1 complexes” (Nucleic Acids Research, 2020).
